Assay results as given in patent US7163686.

Key:
[1] = molecular target: representative VHIII-encoded IgG2a Moab (moderate affinity clan VHIII, murine 7183-encoded antibody); assay: inhibition ELISA: SpA form in solution preincubated with the murine 7183-encoded IgG2a, then wells coated with tetmDomD′; human Fc fragments added
[2] = molecular target: biotinylated-purified IgG Fc fragments (Jackson Labs); assay: inhibition ELISA: protein in solution incubated with biotinylated IgG Fc fragments, wells coated with SpA, streptavidin-AP

Row | Substance | IC50 [1] | IC50 [2]
1 | SpA domain D (wildtype), monomer (from UniProt P38507 93-153) | 10000 µM | 200 µM
2 | Staphylococcal protein A (SpA), native, recombinant rSpA (Repligen) (from UniProt P38507 37-437) | 2 µM | 0.4 µM
3 | TetmDomD′ (four-domain concatamer of mutant SpA domain D′, L17D/I31A) (from UniProt P38507 93-153; P38507 93-153; P38507 93-153; P38507 93-153) | 5000 µM | –
